This note sets out measurements from patent publication US20110064742 (published 2011).

Bridge positions count the residues as written; N and C are the ends. Square brackets hold non-standard residues; d marks the D form. Phe(4-Cl) = N[C@@H](Cc1ccc(Cl)cc1)C(=O)O; dPhe(4-Cl) = N[C@H](Cc1ccc(Cl)cc1)C(=O)O; Phe(4-F) = N[C@@H](Cc1ccc(F)cc1)C(=O)O; 2Nal = N[C@@H](Cc1ccc2ccccc2c1)C(=O)O; 3Pal = N[C@@H](Cc1cccnc1)C(=O)O

The chains are these.
B1: PRL-2915 (peptide)
chain: H-[Phe(4-Cl)]C[3Pal][dW]KIC[2Nal]-NH2
modifications: disulfide 2-7
SMILES: CC[C@H](C)[C@@H]1NC(=O)[C@H](CCCCN)NC(=O)[C@@H](Cc2c[nH]c3ccccc23)NC(=O)[C@H](Cc2cccnc2)NC(=O)[C@@H](NC(=O)[C@@H](N)Cc2ccc(Cl)cc2)CSSC[C@@H](C(=O)N[C@@H](Cc2ccc3ccccc3c2)C(N)=O)NC1=O
B2: BIM 23,458 (peptide)
chain: H-[Phe(4-F)][dC][3Pal][dW]KIC[2Nal]-NH2
modifications: disulfide 2-7
SMILES: CC[C@H](C)[C@@H]1NC(=O)[C@H](CCCCN)NC(=O)[C@@H](Cc2c[nH]c3ccccc23)NC(=O)[C@H](Cc2cccnc2)NC(=O)[C@H](NC(=O)[C@@H](N)Cc2ccc(F)cc2)CSSC[C@@H](C(=O)N[C@@H](Cc2ccc3ccccc3c2)C(N)=O)NC1=O
B3: BIM 23,627 (peptide)
chain: H-[dPhe(4-Cl)][dC][3Pal]WKVC[2Nal]-NH2
modifications: disulfide 2-7
SMILES: CC(C)[C@@H]1NC(=O)[C@H](CCCCN)NC(=O)[C@H](Cc2c[nH]c3ccccc23)NC(=O)[C@H](Cc2cccnc2)NC(=O)[C@H](NC(=O)[C@H](N)Cc2ccc(Cl)cc2)CSSC[C@@H](C(=O)N[C@@H](Cc2ccc3ccccc3c2)C(N)=O)NC1=O

The first assay deals with SSTR-2 (human).
SSTR-2 (human), sequence (chain, as listed by the source): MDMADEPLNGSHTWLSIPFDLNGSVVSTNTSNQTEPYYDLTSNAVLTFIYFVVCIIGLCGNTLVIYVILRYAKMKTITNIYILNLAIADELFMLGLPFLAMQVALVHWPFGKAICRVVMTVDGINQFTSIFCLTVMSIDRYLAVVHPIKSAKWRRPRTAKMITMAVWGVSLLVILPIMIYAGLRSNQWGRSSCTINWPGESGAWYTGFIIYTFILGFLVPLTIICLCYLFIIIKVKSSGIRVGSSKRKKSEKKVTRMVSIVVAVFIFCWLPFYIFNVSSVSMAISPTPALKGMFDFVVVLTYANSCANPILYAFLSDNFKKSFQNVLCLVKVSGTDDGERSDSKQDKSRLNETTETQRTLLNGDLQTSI
Ac-HFIRWF-NH2 [AC-178,335] returned a Ki of 158 nM.

In turn, XCYWKTCX (cyclic disulfide; H-Cpa-cyclo[DCys-Tyr-DTrp-Lys-Thr-Cys]-Nal-NH2) [PRL-2970] showed a Ki of 25.1 nM.

For the molecule B1, the Ki stood at 12.6 nM.

A further assay addresses SSTR-2 (human). This is another data set of the same source.
Molecule B2 showed an IC50 of 27.4 nM.

H-[Phe(4-Cl)]C[3Pal]WKVC[2Nal]-NH2 (cysteine pairing not given here) [BIM 23,454] showed an IC50 of 31.6 nM.

For the molecule B3, inhibition was half-maximal at 6.4 nM (IC50).
